Assay results reported in paper PMC7438327 (Cell Death & Disease, 2020).

T1: oligomycin sensitivity-conferring protein (OSCP), endogenous in HEK cells (human (endogenous in HEK), UniProt P48047 24-213)
T1 construct: OSCP subunit of the mitochondrial ATP synthase, immunoprecipitated or stained in HEK cell lines; also called OSCP subunit of the ATP synthase; source: endogenous, HEK CypD mutant cell lines
T1 sequence (looked up): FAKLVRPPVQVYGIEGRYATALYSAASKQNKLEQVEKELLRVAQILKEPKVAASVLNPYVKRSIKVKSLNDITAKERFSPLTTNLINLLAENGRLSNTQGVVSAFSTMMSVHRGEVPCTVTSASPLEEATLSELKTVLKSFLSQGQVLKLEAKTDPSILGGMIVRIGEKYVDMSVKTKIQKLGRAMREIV

T2: oligomycin sensitivity-conferring protein (OSCP) tagged with Clover GFP (UniProt P48047 24-213)
T2 construct: OSCP subunit of the mitochondrial ATP synthase; One vector carries OSCP-Clover and, downstream of an IRES, CypD-Scarlet; also called OSCP-Clover; OSCP subunit of the ATP synthase; source: HEK cells, transfected, in cells
T2 sequence (looked up): T1 sequence (looked up)

B1: cyclophilin D (CypD) WT, rescued in HEK CypD-KO cells (natural protein)
chain: not shown
notes: also called WT group; source: HEK CypD-KO cells (CRISPR/Cas9) rescued with WT CypD, in cells or lysate
B2: cyclophilin D (CypD) phosphoresistant S191A mutant, rescued in HEK CypD-KO cells (natural protein)
chain: not shown
notes: also called phosphoresistant S191A group; source: HEK CypD-KO cells (CRISPR/Cas9) rescued with mutated CypD, in cells or lysate
B3: cyclophilin D (CypD) phosphomimetic S191E mutant, rescued in HEK CypD-KO cells (natural protein)
chain: not shown
notes: also called phosphomimetic S191E group; source: HEK CypD-KO cells (CRISPR/Cas9) rescued with mutated CypD, in cells or lysate
B4: cyclophilin D (CypD) WT tagged with Scarlet (natural protein)
chain: not shown
notes: also called PPIF; source: HEK cells, transfected, in cells
B5: cyclophilin D (CypD) phosphomimetic S191E mutant tagged with Scarlet (natural protein)
chain: not shown
notes: also called phosphomimetic mutant S191E; source: HEK cells, transfected, in cells
B6: cyclophilin D (CypD) phosphoresistant S191A mutant tagged with Scarlet (natural protein)
chain: not shown
notes: source: HEK cells, transfected, in cells

Biological target: T1, oligomycin sensitivity-conferring …
Experiment: co-IP; OSCP immunoprecipitation in HEK CypD mutant cell lines, immunoblots of CypD and OSCP; quantified as fold vs. WT
Conditions: partners not purified

CypD co-immunoprecipitated with OSCP, fold vs. WT [fold vs. WT]	Binder
1	B1
0.65	B2
1.48	B3

Biological target: T2, oligomycin sensitivity-conferring …
Experiment: FRET or BRET; HEK cells transfected with OSCP-Clover and WT or mutant CypD-Scarlet downstream of an IRES; excitation 458 nm, emission 505-540 nm and 575-620 nm; FRET ratio
Conditions: partners not purified

FRET ratio	Binder
1.92	B4
2.44	B5
1.29	B6
